Test results: patent US20260137799A1, “ANTI-MUC1* ANTIBODY DRUG COMPLEXES AND USES THEREOF” (Minerva Biotechnologies Corporation, priority 2023, published 2026)
Residue numbers refer to the chain shown, from its start.

Experiments:
[1] = biological target: T1, PSMGFR peptide; assay: peptide binding assay (FIGS. 1A, 1B)
T1 construct: also called PSMGFR 45mer
T1 peptide: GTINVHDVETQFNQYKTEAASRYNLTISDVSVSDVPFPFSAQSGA

[2] = biological target: T2, PSMGFR N-30 peptide; assay: peptide binding assay (FIGS. 2A, 2B)
T2 peptide: SVSDVPFPFSAQSGA

[3] = biological target: T3, PSMGFR N-19 C-5 peptide; assay: peptide binding assay (FIGS. 2A, 2B)
T3 peptide: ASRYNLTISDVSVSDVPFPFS

[4] = biological target: T4, PSMGFR C-10 peptide; assay: ELISA on PSMGFR C-10 peptide; Table 4 grade
T4 peptide: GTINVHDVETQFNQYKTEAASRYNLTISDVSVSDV

[5] = biological target: T5, PSMGFR N-10 peptide; assay: ELISA on PSMGFR N-10 peptide; Table 4 column 'Binds N-10', grade
T5 peptide: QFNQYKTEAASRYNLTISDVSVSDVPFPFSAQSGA

[6] = biological target: PSMGFR C-10 peptide (SEQ ID NO: 3) (Homo sapiens, UniProt P15941); assay: ELISA binding to PSMGFR C-10 peptide; conditions: ELISA
Excerpt: Cancer selective anti-MUC1* antibodies bind to a membrane proximal conformational epitope within the MUC1* extracellular domain, as described in WO 2020/146902.
The 3C2B1 epitope was mapped more precisely with additional PSMGFR peptide variants (FIGS. 2A, 2B).

[7] = system: MUC1 after cleavage by MMP9; assay: Binding to MUC1-expressing cells after MMP9 cleavage; format: cell-based
Sequence of MUC1 after cleavage by MMP9 (P15941 1120-1255 limits assumed): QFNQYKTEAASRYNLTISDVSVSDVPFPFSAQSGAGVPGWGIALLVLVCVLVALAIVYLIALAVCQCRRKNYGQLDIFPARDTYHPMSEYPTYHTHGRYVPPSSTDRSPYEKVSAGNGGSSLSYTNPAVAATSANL
Protocol: The binding strength of anti-MUC1* antibodies is evaluated by determining their ability to displace NMF7-AB (a MUC1* ligand) from MUC1* immobilized on the plastic surface of a 96-well plate. Because the cancer-selective MUC1* epitope is a conformational epitope, cancer-selective anti-MUC1* antibodies should not recognize MUC1* on a western blot, where the epitope is linearized. MMP9 is a protease that cleaves MUC1 to generate MUC1*. MMP9 is a predictor of poor prognosis for breast cancers. Some cancer-selective anti-MUC1* antibodies, particularly breast cancer selective antibodies, should bind to cells engineered to express MUC1 after they are contacted with MMP9 to convert the MUC1 to MUC1*.

[8] = biological target: MUC1* on cancer cells and tumour sections (UniProt P15941); assay: IHC with C2 on untreated H1975-wt lung tumors excised from mice
[9] = biological target: MUC1* on cancer cells and tumour sections (UniProt P15941); assay: IHC with C2 on untreated T47D-wt breast tumors excised from mice
[10] = biological target: MUC1* on cancer cells and tumour sections (UniProt P15941); assay: IHC with C2 on untreated HPAFII-wt pancreatic tumors excised from mice
[11] = system: T47D; assay: xCELLigence impedance cytotoxicity, T47D; format: cell-based, human; conditions: xCELLigence; 40-120 hours incubation; read-out: IC50, T47D
Protocol: (§1) An xCELLigence RTCA MP Instrument (Agilent) was used to assess real-time killing of target cancer cells). In the xCELLigence system, target cancer cells, which are adherent, are plated onto electrode array 96-well plates. Adherent cells insulate the electrode and increase the impedance. The number of adherent cancer cells is directly proportional to impedance. […] Therefore, increasing impedance reflects the growth of the cancer cells and decreasing impedance reflects the killing of the cancer cells.
(§2) Target Cancer cells (Table 9) were seeded onto a multi-electrode well plate at a density of 5000 cells/well (100 μL of a 50,000 cells/mL stock) and incubated for 24 hr in a 37° C./5% CO2 incubator. ADCs were prepared as a 2× solution in corresponding growth media and 100 μL of each concentration was added to target cells. As a positive control (100% cell killing) cells were treated with either 1% triton or 1 μM Taxol instead of ADC. After 40-120 hours incubation in a 37° C./5% CO2 incubator cell killing was assessed. In this assay, impedance is measured in real-time. When the adherent cancer cells are killed and come off the electrode surface, impedance (insulation) decreases.

[12] = system: T47D-MUC1*; assay: xCELLigence impedance cytotoxicity, T47D-MUC1*; format: cell-based, human; conditions: xCELLigence; 40-120 hours incubation; read-out: IC50, T47D-MUC1*
Protocol: as §1, §2

[13] = system: NCI-H1975; assay: xCELLigence impedance cytotoxicity, NCI-H1975; format: cell-based, human; conditions: xCELLigence; 40-120 hours incubation; read-out: IC50, NCI-H1975
Protocol: as §1, §2

[14] = system: T47D; assay: PrestoBlue live/dead cell assay, T47D; format: cell-based, human; conditions: Presto Blue; 72-120 hour incubation
Protocol: (§3) Another method of measuring the killing activity of ADCs against target cancer cells is to use the PrestoBlue live/dead cell assay (ThermoFisher). Target cancer cells were seeded in a black-walled, clear-bottom 96-well tissue culture plate at a density of 5000 cells/well (100 μL of a 50,000 cells/mL stock) and incubated overnight in a 37° C./5% CO2 incubator. ADCs were prepared as a 2× solution in corresponding cancer cell growth media and 100 μL of each concentration was added to target cancer cells. As a positive control (100% killing) cancer cells were treated with 1 μM Taxol instead of ADC. After 72 hour-120 hour incubation in a 37° C./5% CO2 incubator, cell viability was measure by fluorescence using the PrestoBlue HS assay (ThermoFisher). Briefly, after the incubation period, 20 μL of PrestoBlue HS solution was added. Fluorescence (Ex 560 nm/Em 590 nm) was recorded after 30-90 min. incubation using a Tecan plate reader. Percentage viability was determined by PrestoBlue HS staining and normalized to 1 μM taxol treated cells.
(§4) The normalized fluorescence values were imported into the graph program, Sigma Plot, data plotted as ADC concentration versus normalized fluorescence signal and curve fitted using a four-parameter Hill equation: f=y0+a*x^b/(c^b+x^b) to calculate IC50 values. IC50 values for the ADCs were generally consistent between the xCELLigence and Presto Blue assays.

[15] = system: T47D-MUC1*; assay: PrestoBlue live/dead cell assay, T47D-MUC1*; format: cell-based, human; conditions: Presto Blue; 72-120 hour incubation
Protocol: as §3, §4

[16] = system: HPAFII; assay: PrestoBlue live/dead cell assay, HPAFII; format: cell-based, human; conditions: Presto Blue; 72-120 hour incubation
Protocol: as §3, §4

[17] = system: HPAFII-MUC1*; assay: PrestoBlue live/dead cell assay, HPAFII-MUC1*; format: cell-based, human; conditions: Presto Blue; 72-120 hour incubation
Protocol: as §3, §4

[18] = system: H1975; assay: PrestoBlue live/dead cell assay, H1975; format: cell-based, human; conditions: Presto Blue; 72-120 hour incubation
Protocol: as §3, §4

[19] = system: T47D xenograft tumors; assay: T47D breast cancer xenograft; format: in vivo, NOD/SCID mice; conditions: intraperitoneal; MMAE ADCs 5-10 mg/kg Days 7, 14, 20; deruxtecan/exatecan ADCs 20 mg/kg weekly x7
Protocol: (§5) For breast cancer xenografts, female NOD/SCID mice (weight 18-22 g, 6-8 weeks old, Charles River Laboratories) previously implanted with a 90-day release estrogen pellet (Innovative Research Laboratories) were subcutaneously injected under isoflurane anesthesia (ISOTHESIA, 250 ml (HENRY SCHEIN, NDC: 11695-6776-2) with one million luciferase-positive T47D breast cancer cells expressing low levels of MUC1*(ATCC) or one million luciferase-positive T47D-MUC1* cells overproducing MUC1* using a BD 26G Insulin Syringes with Detachable Needle (Fisher cat: 329652) or BD 28G Lo-Dose U-100 Insulin Syringes (Fisher cat: 329461).
(§6) Tumor volume was measured from bioluminescence images acquired with a Xenogen IVIS-Spectrum system (Perkin Elmer). Mice were injected […] into the scruff of the neck with 150 ul, 30 mg/mL, D-Luciferin (XenoLight™ D-Luciferin Potassium Salt; PerkinElmer P/N 122799), placed under isoflurane anesthesia, and photographed within 10 minutes of the Leciferin injection. Data was expressed graphically as Radiance (photons/sec) as a function of days post-tumor implantation.
(§7) Tumor mass was determined from tumors excised from mice receiving T47D cells on Day 95 and mice receiving T47D-MUC1* cells on Day 96. […]

[20] = system: T47D-MUC1* xenograft tumors; assay: T47D-MUC1* breast cancer xenograft; format: in vivo, NOD/SCID mice; conditions: intraperitoneal; MMAE ADCs 5-10 mg/kg Days 7, 14, 20; deruxtecan/exatecan ADCs 20 mg/kg weekly x7
Protocol: as §5, §6, §7

B1: anti-MUC1* antibody 3C2B1 (antibody, V domains shown)
VH: EVMLVESGGGLVKPGGSLKLSCAASGITFSTYTMSWVRQTPEKRLEWVATISTGGDKTYYSDSVKGRFTISRDNAKNNLYLQMSSLRSEDTALYYCARGTTAMYYYAMDYWGQGTSVTVSS
VL: DIVLTQSPASLAVSLGQRATISCRASKSISTSDYNYIHWYQQKPGQPPKLLIYLASNLESGVPARFSGSGSGTDFTLNIHPVEEEDAATYYCQHSRELPLTFGAGTKLELK
notes: Humanised form is m27; also called 32CB1
[1]
  binding result: binds
[2]
  binding result: binds
[3]
  binding result: binds
[4]
  binding result: no binding
[5]
  binding result: binds

B2: 18G12: anti-MUC1* monoclonal antibody that bound to the PSMGFR peptide (antibody, V domains shown)
VH: QVQLVQSGAEVKKPGASVKVSCKASGYTFTGYFLYWVRQAPGQGLEWIGGINPDNGGIDFNEKFRNRATLTVDKSSSTAYMELSSLRSEDTAVYYCTLLIGNYWGQGTLVTVSS
VL: DVVMTQTPSSLSVTPGQPASISCKSSQSLLHSDGKTYLIWLQQKPGQSPQRLIYLVSKLDSGVPDRFSGSGSGTDFTLKISRVEAEDVGVYYCCQGTHFPWTFGQGTKVEIK
[6]
  Does not bind C-10: 0
[7]
  Recognizes MUC1 after cleavage by MMP9: 0

B3: 28F9: anti-MUC1* monoclonal antibody that bound to the PSMGFR peptide (antibody, V domains shown)
VH: B2 VH with N52H, D54S, G57D, I58T, R65K, K74I, E89D, T97A, L98R, N102V
VL: B2 VL with T7S, S9L, P15L, K44R, Q50R, Y92F
modifications: humanized form
[6]
  Does not bind C-10: 0
[7]
  Recognizes MUC1 after cleavage by MMP9: 0

B4: anti-MUC1* antibody C2 (antibody)
VH: EVQLEESGGGLVKPGGSLKLSCAASGFTFSGYAMSWVRQTPEKRLEWVATISSGGTYIYYPDSVKGRFTISRDNAKNTLYLQMSSLRSEDTAMYYCARLGGDNYYEYFDVWGAGTTVTVSSAKTTPPSVYPLAPGSAAQTNSMVTLGCLVKGYFPEPVTVTWNSGSLSSGVHTFPAVLQSDLYTLSSSVTVPSSTWPSETVTCNVAHPASSTKVDKKIVPRDCGCKPCICTVPEVSSVFIFPPKPKDVLTITLTPKVTCVVVDISKDDPEVQFSWFVDDVEVHTAQTQPREEQFNSTFRSVSELPIMHQDWLNGKEFKCRVNSAAFPAPIEKTISKTKGRPKAPQVYTIPPPKEQMAKDKVSLTCMITDFFPEDITVEWQWNGQPAENYKNTQPIMDTDGSYFVYSKLNVQKSNWEAGNTFTCSVLHEGLHNHHTEKSLSHSPGK
VL: DIVITQSTASLGVSLGQRATISCRASKSVSTSGYSYMHWYQQRPGQPPKLLIYLASNLESGVPARFSGSGSGTDFTLNIHPVEEEDAATYYCQHSRELPFTFGGGTKLEIKRADAAPTVSIFPPSSEQLTSGGASVVCFLNNFYPKDINVKWKIDGSERQNGVLNSWTDQDSKDSTYSMSSTLTLTKDEYERHNSYTCEATHKTSTSPIVKSFNRNEC
notes: Monoclonal antibody raised against the PSMGFR peptide; also called mAb C2; IgG1 C2 antibody
[4]
  binding result: no binding
[8]
  H-score: 40
[9]
  H-score: 10
[10]
  H-score: 220

B5: C2 MC-VC-PAB MMAE (conjugate, listed as Mus sp.)
heavy: EVQLEESGGGLVKPGGSLKLSCAASGFTFSGYAMSWVRQTPEKRLEWVATISSGGTYIYYPDSVKGRFTISRDNAKNTLYLQMSSLRSEDTAMYYCARLGGDNYYEYFDVWGAGTTVTVSSAKTTPPSVYAKTTPPSVYPLAPGSAAQTNSMVTLGCLVKGYFPEPVTVTWNSGSLSSGVHTFPAVLQSDLYTLSSSVTVPSSTWPSETVTCNVAHPASSTKVDKKIVPRDCGCKPCICTVPEVSSVFIFPPKPKDVLTITLTPKVTCVVVDISKDDPEVQFSWFVDDVEVHTAQTQPREEQFNSTFRSVSELPIMHQDWLNGKEFKCRVNSAAFPAPIEKTISKTKGRPKAPQVYTIPPPKEQMAKDKVSLTCMITDFFPEDITVEWQWNGQPAENYKNTQPIMDTDGSYFVYSKLNVQKSNWEAGNTFTCSVLHEGLHNHHTEKSLSHSPGK
light: DIVITQSTASLGVSLGQRATISCRASKSVSTSGYSYMHWYQQRPGQPPKLLIYLASNLESGVPARFSGSGSGTDFTLNIHPVEEEDAATYYCQHSRELPFTFGGGTKLEIKRADAAPTVSADAAPTVSIFPPSSEQLTSGGASVVCFLNNFYPKDINVKWKIDGSERQNGVLNSWTDQDSKDSTYSMSSTLTLTKDEYERHNSYTCEATHKTSTSPIVKSFNRNEC
modifications: MC-VC-PAB-MMAE
notes: ADC: anti-MUC1* antibody C2 conjugated via MC-VC-PAB linker to MMAE
[11]
  IC50: 156 nM
[12]
  IC50: 1.8 nM
[13]
  IC50: 23 nM
[14]
  IC50: 187 nM
[15]
  IC50: 2.6 nM
[16]
  IC50: 112 nM
[17]
  IC50: 63 nM
[18]
  IC50: 89 nM
[19]
  growth of T47D xenograft tumors: inhibit the growth
[20]
  growth of T47D-MUC1* xenograft tumors: inhibit the growth
